Experimental findings from PMC10786891, “Massively parallel profiling of RNA-targeting CRISPR-Cas13d” are described below.

By Kd is commonly meant the constant that tells how readily two partners part at equilibrium. A lower Kd goes with a tighter complex.

To fix the notation:
T1: EsCas13d, nuclease-dead (Eubacterium siraeum, UniProt B0MS50, R295A;H300A;R849A;H854A)
T1 sequence: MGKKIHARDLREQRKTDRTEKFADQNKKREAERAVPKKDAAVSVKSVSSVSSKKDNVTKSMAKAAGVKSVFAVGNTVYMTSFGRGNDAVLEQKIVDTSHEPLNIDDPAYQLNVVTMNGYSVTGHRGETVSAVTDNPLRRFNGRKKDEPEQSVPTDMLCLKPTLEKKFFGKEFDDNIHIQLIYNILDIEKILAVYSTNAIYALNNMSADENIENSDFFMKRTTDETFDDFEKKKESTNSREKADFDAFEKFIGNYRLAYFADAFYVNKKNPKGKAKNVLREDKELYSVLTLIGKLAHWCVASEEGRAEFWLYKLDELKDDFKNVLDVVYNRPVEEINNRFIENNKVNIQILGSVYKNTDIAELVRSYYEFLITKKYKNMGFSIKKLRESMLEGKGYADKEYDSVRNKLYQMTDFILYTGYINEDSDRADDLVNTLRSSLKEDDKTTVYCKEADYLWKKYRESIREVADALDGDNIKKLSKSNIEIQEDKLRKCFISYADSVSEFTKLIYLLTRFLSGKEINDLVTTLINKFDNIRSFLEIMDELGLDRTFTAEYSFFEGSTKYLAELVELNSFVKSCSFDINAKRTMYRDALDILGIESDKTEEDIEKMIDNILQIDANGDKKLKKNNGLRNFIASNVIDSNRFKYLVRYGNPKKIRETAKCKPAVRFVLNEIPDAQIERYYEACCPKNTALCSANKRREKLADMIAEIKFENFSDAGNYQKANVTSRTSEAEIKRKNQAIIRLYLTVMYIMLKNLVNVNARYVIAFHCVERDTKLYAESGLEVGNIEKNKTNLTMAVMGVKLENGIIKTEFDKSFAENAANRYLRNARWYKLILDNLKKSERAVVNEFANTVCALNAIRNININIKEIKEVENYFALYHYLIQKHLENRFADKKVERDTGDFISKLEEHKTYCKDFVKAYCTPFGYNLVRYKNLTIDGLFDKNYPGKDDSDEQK

B1: target 1 insU 3' of 9,insU 3' of 5 (mixed)
RNA 1: CACCCGUGCAAAAAUGCAGGGGUCUAAAACUGAGCGGAUAACCUCUCUAUGG
RNA 2: GGGAAUGGAUCCACAUCUACGAAUUCGUACCAUAGAGAGGUUAUUCCGUCUCACCGAGAUCGGAAGAGCACACGU
B2: target 1 A1G,C7G (mixed)
RNA 1: CACCCGUGCAAAAAUGCAGGGGUCUAAAACUGAGCGGAUAACCUCUCUAUGG
RNA 2: GGGAAUGGAUCCACAUCUACGAAUUCGUACCAUAGAGAGGUUAUGCGCUCGCCGAGAUCGGAAGAGCACACGU
B3: target 1 A1C,C7G (mixed)
RNA 1: CACCCGUGCAAAAAUGCAGGGGUCUAAAACUGAGCGGAUAACCUCUCUAUGG
RNA 2: GGGAAUGGAUCCACAUCUACGAAUUCGUACCAUAGAGAGGUUAUGCGCUCCCCGAGAUCGGAAGAGCACACGU
B4: target 1 insC 3' of 15,insC 3' of 14 (mixed)
RNA 1: CACCCGUGCAAAAAUGCAGGGGUCUAAAACUGAGCGGAUAACCUCUCUAUGG
RNA 2: GGGAAUGGAUCCACAUCUACGAAUUCGUACCAUAGAGCACGGUUAUCCGCUCACCGAGAUCGGAAGAGCACACGU
B5: target 1 insA 3' of 22,insA 3' of 17 (mixed)
RNA 1: CACCCGUGCAAAAAUGCAGGGGUCUAAAACUGAGCGGAUAACCUCUCUAUGG
RNA 2: GGGAAUGGAUCCACAUCUACGAAUUCGUACACAUAGAAGAGGUUAUCCGCUCACCGAGAUCGGAAGAGCACACGU
B6: target 1 insA 3' of 21,insU 3' of 7 (mixed)
RNA 1: CACCCGUGCAAAAAUGCAGGGGUCUAAAACUGAGCGGAUAACCUCUCUAUGG
RNA 2: GGGAAUGGAUCCACAUCUACGAAUUCGUACCAAUAGAGAGGUUAUCUCGCUCACCGAGAUCGGAAGAGCACACGU
B7: target 1 insG 3' of 21,insC 3' of 20 (mixed)
RNA 1: CACCCGUGCAAAAAUGCAGGGGUCUAAAACUGAGCGGAUAACCUCUCUAUGG
RNA 2: GGGAAUGGAUCCACAUCUACGAAUUCGUACCGACUAGAGAGGUUAUCCGCUCACCGAGAUCGGAAGAGCACACGU
B8: target 1 insC 3' of 15 (mixed)
RNA 1: CACCCGUGCAAAAAUGCAGGGGUCUAAAACUGAGCGGAUAACCUCUCUAUGG
RNA 2: GGGAAUGGAUCCACAUCUACGAAUUCGUACCAUAGAGCAGGUUAUCCGCUCACCGAGAUCGGAAGAGCACACGU
B9: target 1 insG 3' of 19 (mixed)
RNA 1: CACCCGUGCAAAAAUGCAGGGGUCUAAAACUGAGCGGAUAACCUCUCUAUGG
RNA 2: GGGAAUGGAUCCACAUCUACGAAUUCGUACCAUGAGAGAGGUUAUCCGCUCACCGAGAUCGGAAGAGCACACGU
B10: target 1 insU 3' of 17 (mixed)
RNA 1: CACCCGUGCAAAAAUGCAGGGGUCUAAAACUGAGCGGAUAACCUCUCUAUGG
RNA 2: GGGAAUGGAUCCACAUCUACGAAUUCGUACCAUAGUAGAGGUUAUCCGCUCACCGAGAUCGGAAGAGCACACGU
B11: target 1 C7G,G17A (mixed)
RNA 1: CACCCGUGCAAAAAUGCAGGGGUCUAAAACUGAGCGGAUAACCUCUCUAUGG
RNA 2: GGGAAUGGAUCCACAUCUACGAAUUCGUACCAUAAAGAGGUUAUGCGCUCACCGAGAUCGGAAGAGCACACGU
B12: target 1 C21A,C22A (mixed)
RNA 1: CACCCGUGCAAAAAUGCAGGGGUCUAAAACUGAGCGGAUAACCUCUCUAUGG
RNA 2: GGGAAUGGAUCCACAUCUACGAAUUCGUAAAAUAGAGAGGUUAUCCGCUCACCGAGAUCGGAAGAGCACACGU
B13: target 1 del3,del16 (mixed)
RNA 1: CACCCGUGCAAAAAUGCAGGGGUCUAAAACUGAGCGGAUAACCUCUCUAUGG
RNA 2: GGGAAUGGAUCCACAUCUACGAAUUCGUACCAUAGGAGGUUAUCCGCCACCGAGAUCGGAAGAGCACACGU
B14: target 1 U3G,G15C (mixed)
RNA 1: CACCCGUGCAAAAAUGCAGGGGUCUAAAACUGAGCGGAUAACCUCUCUAUGG
RNA 2: GGGAAUGGAUCCACAUCUACGAAUUCGUACCAUAGACAGGUUAUCCGCGCACCGAGAUCGGAAGAGCACACGU
B15: target 1 insA 3' of 11,insG 3' of 3 (mixed)
RNA 1: CACCCGUGCAAAAAUGCAGGGGUCUAAAACUGAGCGGAUAACCUCUCUAUGG
RNA 2: GGGAAUGGAUCCACAUCUACGAAUUCGUACCAUAGAGAGGUAUAUCCGCUGCACCGAGAUCGGAAGAGCACACGU
B16: target 1 insU 3' of 5,insG 3' of 3 (mixed)
RNA 1: CACCCGUGCAAAAAUGCAGGGGUCUAAAACUGAGCGGAUAACCUCUCUAUGG
RNA 2: GGGAAUGGAUCCACAUCUACGAAUUCGUACCAUAGAGAGGUUAUCCGUCUGCACCGAGAUCGGAAGAGCACACGU
B17: target 1 insA 3' of 15,insC 3' of 14 (mixed)
RNA 1: CACCCGUGCAAAAAUGCAGGGGUCUAAAACUGAGCGGAUAACCUCUCUAUGG
RNA 2: GGGAAUGGAUCCACAUCUACGAAUUCGUACCAUAGAGAACGGUUAUCCGCUCACCGAGAUCGGAAGAGCACACGU
B18: target 1 insU 3' of 22,insA 3' of 6 (mixed)
RNA 1: CACCCGUGCAAAAAUGCAGGGGUCUAAAACUGAGCGGAUAACCUCUCUAUGG
RNA 2: GGGAAUGGAUCCACAUCUACGAAUUCGUACUCAUAGAGAGGUUAUCCAGCUCACCGAGAUCGGAAGAGCACACGU
B19: target 1 insU 3' of 13,insA 3' of 3 (mixed)
RNA 1: CACCCGUGCAAAAAUGCAGGGGUCUAAAACUGAGCGGAUAACCUCUCUAUGG
RNA 2: GGGAAUGGAUCCACAUCUACGAAUUCGUACCAUAGAGAGUGUUAUCCGCUACACCGAGAUCGGAAGAGCACACGU
B20: target 1 C2G,C7A (mixed)
RNA 1: CACCCGUGCAAAAAUGCAGGGGUCUAAAACUGAGCGGAUAACCUCUCUAUGG
RNA 2: GGGAAUGGAUCCACAUCUACGAAUUCGUACCAUAGAGAGGUUAUACGCUGACCGAGAUCGGAAGAGCACACGU
B21: target 1 C2A,C4U (mixed)
RNA 1: CACCCGUGCAAAAAUGCAGGGGUCUAAAACUGAGCGGAUAACCUCUCUAUGG
RNA 2: GGGAAUGGAUCCACAUCUACGAAUUCGUACCAUAGAGAGGUUAUCCGUUAACCGAGAUCGGAAGAGCACACGU
B22: target 1 C4G,U19C (mixed)
RNA 1: CACCCGUGCAAAAAUGCAGGGGUCUAAAACUGAGCGGAUAACCUCUCUAUGG
RNA 2: GGGAAUGGAUCCACAUCUACGAAUUCGUACCACAGAGAGGUUAUCCGGUCACCGAGAUCGGAAGAGCACACGU
B23: target 1 U11A,G13A (mixed)
RNA 1: CACCCGUGCAAAAAUGCAGGGGUCUAAAACUGAGCGGAUAACCUCUCUAUGG
RNA 2: GGGAAUGGAUCCACAUCUACGAAUUCGUACCAUAGAGAAGAUAUCCGCUCACCGAGAUCGGAAGAGCACACGU
B24: target 1 A9G,G15A (mixed)
RNA 1: CACCCGUGCAAAAAUGCAGGGGUCUAAAACUGAGCGGAUAACCUCUCUAUGG
RNA 2: GGGAAUGGAUCCACAUCUACGAAUUCGUACCAUAGAAAGGUUGUCCGCUCACCGAGAUCGGAAGAGCACACGU
B25: target 1 U11A,G12U (mixed)
RNA 1: CACCCGUGCAAAAAUGCAGGGGUCUAAAACUGAGCGGAUAACCUCUCUAUGG
RNA 2: GGGAAUGGAUCCACAUCUACGAAUUCGUACCAUAGAGAGUAUAUCCGCUCACCGAGAUCGGAAGAGCACACGU
B26: target 1 C7G (mixed)
RNA 1: CACCCGUGCAAAAAUGCAGGGGUCUAAAACUGAGCGGAUAACCUCUCUAUGG
RNA 2: GGGAAUGGAUCCACAUCUACGAAUUCGUACCAUAGAGAGGUUAUGCGCUCACCGAGAUCGGAAGAGCACACGU
B27: target 1 insG 3' of 18,insC 3' of 18 (mixed)
RNA 1: CACCCGUGCAAAAAUGCAGGGGUCUAAAACUGAGCGGAUAACCUCUCUAUGG
RNA 2: GGGAAUGGAUCCACAUCUACGAAUUCGUACCAUAGCGAGAGGUUAUCCGCUCACCGAGAUCGGAAGAGCACACGU

In this data set the target is T1, EsCas13d, nuclease-dead. Kind of data set: crRNA (strand 1, pre-loaded); Mg2+; 40 mM Tris-HCl pH 7.5, 150 mM NaCl, 6 mM MgCl2, 1 mM DTT, 0.1% Tween-20, 0.2 mg/ml BSA; 25 C; 10 min per concentration, then washed. The following applies: tags: His6-TwinStrep-SUMO cleaved; N-terminal SNAP kept (SNAP-Surface 488); label: 3' end held by stalled T7 RNA polymerase.
The molecule B1 had a Kd of 8 ± 1.5 nM.
With B2 the figure was 9.2 ± 0.9 nM; with B3, 8.8 ± 0.7 nM.
The figure for B4 is 12 ± 1 nM; for B5 it is 27.5 ± 2 nM; for B6 it is 40.7 ± 3.1 nM.
The figure for B7 is 15.3 ± 1.1 nM.
B8 showed a Kd of 16.3 ± 0.8 nM.
The figure for B9 is 50 ± 4 nM; for B10 it is 14.1 ± 1.2 nM; for B11 it is 49 ± 5 nM.
On to B12, for which the Kd stood at 36 ± 5 nM.
With B13 the figure was 85 ± 31 nM; with B14, 34 ± 4 nM; with B15, 12.1 ± 0.6 nM.
The figure for B16 is 12.9 ± 0.9 nM; for B17 it is 14.8 ± 0.7 nM; for B18 it is 55 ± 16 nM.
Turning to B19, the Kd is 24 ± 3.1 nM.
With B20, binding was put at a Kd of 6.22 ± 0.24 nM.
The figure for B21 is 33.5 ± 3.5 nM; for B22 it is 28 ± 6 nM.
The figure for B23 is 38.5 ± 2.8 nM.
B24 had a Kd of 11.6 ± 0.7 nM.
B25 gave a Kd of 5.1 ± 0.35 nM.
B26 gave a Kd of 8.8 ± 0.5 nM. This Kd is about 1.7-fold higher than that of the molecule before.
B27 displayed a Kd of 30.8 ± 1.3 nM.
